The text below walks through data of the RNAGym collection of RNA variant scans (doi:10.7554/elife.80360).

B1: CPEB3 Ribozyme (parent)
chain: GGGGGCCACAGCAGAAGCGUUCACGUCGCGGCCCCUGUCAGAUUCUGGUGAAUCUGCGAAUUCUGCUGU

The variants in the data set derive from B1. Briefly: self-cleavage, relative activity (ratio to wild type); higher = more cleavage; co-transcriptional.
In the case of U26G G50U, the self-cleavage was determined as 0.928.

Consider U26G G50C, for which the self-cleavage was 0.962. For U26G G50A, the self-cleavage came out at 0.927.

For the variant G28A A60G, the self-cleavage is 0.168.

For G28A A60C, the self-cleavage came out at 0.197. Regarding G28A A60U, the self-cleavage came to 0.199.

C27A U38C: the self-cleavage stood at 0.324. Turning to C27A U38A, the self-cleavage came out at 0.26. With C27G U69C, the self-cleavage came to 0.374.

As for C27G U69A, the self-cleavage amounted to 0.267.

As to G28A A59U, the self-cleavage came to 0.198. Take C27U U46A: the self-cleavage stood at 0.567. C27U U46G: the self-cleavage worked out at 0.372. On to C27U U46C, for which the self-cleavage came out at 0.301. On to C27A G56C, for which the self-cleavage came to 0.187. In the case of C27A G56U, the self-cleavage is 0.371. Regarding C27G G30U, the self-cleavage turned out to be 0.149. Consider C27G G30C, for which the self-cleavage came out at 0.279.

In the case of C27G G30A, the self-cleavage turned out to be 0.228. C27G U36A: the self-cleavage stood at 0.18.

As for C27A A52C, the self-cleavage was 0.556.

Take C27G A51G: the self-cleavage was found to be 0.217.

C27G A51U: the self-cleavage is 0.15.

As for U26G G56C, the self-cleavage worked out at 0.356.

U26G G56A: the self-cleavage came to 0.729. For the variant U26G G56U, the self-cleavage is 0.814. Consider C27G A40C, for which the self-cleavage amounted to 0.258. For C27G G31A, the self-cleavage amounted to 0.174. Regarding C27G G31C, the self-cleavage came to 0.174. The result for C27U C33U reads 0.345; that for C27U C33A, 0.271; that for C27U C33G, 0.206.

Consider C27G U38A, for which the self-cleavage came out at 0.191. The result for C27G U38C reads 0.243; that for C27G C54G, 0.169. For the variant C27G C54U, the self-cleavage amounted to 0.151.

Consider G28A C29A, for which the self-cleavage is 0.143.

With G28A C29G, the self-cleavage is 0.117. As for G28A C29U, the figure is 0.177.

For the variant C27G U46A, the self-cleavage was 0.162. As to C27G U46C, the self-cleavage was found to be 0.181. Regarding C27G U46G, the self-cleavage came out at 0.188. With U26G U43C, the self-cleavage was determined as 0.863. With U26G U43A, the self-cleavage is 0.766.

Regarding U26G U43G, the self-cleavage turned out to be 0.801. Consider C27U G65A, for which the self-cleavage was 0.172. On to C27U G65U, for which the self-cleavage was 0.148. As for C27U G65C, the figure is 0.196.

Turning to C27A G50A, the self-cleavage is 0.587. Take C27A G50C: the self-cleavage amounted to 0.493.

As for C27A G50U, the self-cleavage stood at 0.647.

On to C27A G28U, for which the self-cleavage is 0.187. With C27A G28A, the self-cleavage came to 0.18. C27A G28C: the self-cleavage was 0.158. With U26G G65C, the self-cleavage worked out at 0.646.

On to U26G G65A, for which the self-cleavage was 0.643. C27A U67A: the self-cleavage was 0.685.

On to C27A U67C, for which the self-cleavage turned out to be 0.66. As for C27U C35A, the self-cleavage came to 0.158. In the case of C27U C35U, the self-cleavage turned out to be 0.318. As for C27G C57G, the figure is 0.175.

On to C27G C57A, for which the self-cleavage amounted to 0.131. C27U A52C: the self-cleavage was determined as 0.302. Consider C27U A52G, for which the self-cleavage stood at 0.415. In the case of C27U A52U, the self-cleavage came out at 0.291.

Turning to C27U G50U, the self-cleavage was 0.396. C27U G50A: the self-cleavage came out at 0.371.

As for C27A C63A, the self-cleavage came to 0.227. As for C27G G48A, the self-cleavage was found to be 0.156. C27A U44C: the self-cleavage is 0.354.

Regarding C27A U44A, the self-cleavage was 0.439. Consider C27A U44G, for which the self-cleavage is 0.295. The result for C27A G47U reads 0.738; that for C27A G47C, 0.72. Consider C27G C32A, for which the self-cleavage was determined as 0.201. For C27G C32U, the self-cleavage amounted to 0.207. With C27G C32G, the self-cleavage was found to be 0.134. For the variant C27A G41A, the self-cleavage was 0.196. As for C27A G41C, the figure is 0.149; as for C27G C29G, 0.208; as for C27G U61A, 0.19. For the variant G28A C32A, the self-cleavage was 0.19.

Turning to G28A C32U, the self-cleavage amounted to 0.184. Turning to G28A C32G, the self-cleavage was 0.139. Take C27A U49G: the self-cleavage amounted to 0.59. For the variant C27A U49C, the self-cleavage was 0.702. As to C27A U61G, the self-cleavage is 0.367. With C27A U61C, the self-cleavage came out at 0.191.

Regarding C27U U67A, the self-cleavage was determined as 0.276.

C27U U67C: the self-cleavage turned out to be 0.332. The result for C27U A42G reads 0.174.

Consider C27U A42C, for which the self-cleavage came to 0.27.

As for C27U G28U, the self-cleavage came out at 0.187. As for C27U G28C, the figure is 0.218. C27U C29A: the self-cleavage was 0.192. With C27G G37C, the self-cleavage was 0.162. For C27A G30C, the self-cleavage was determined as 0.138.

As for C27A G30A, the self-cleavage amounted to 0.176.

As for C27U U55A, the self-cleavage came out at 0.184.

Regarding C27U U55C, the self-cleavage is 0.143. In the case of C27G C45G, the self-cleavage is 0.144. With C27A C33A, the self-cleavage worked out at 0.288. C27A C33G: the self-cleavage turned out to be 0.224.

As for C27A C33U, the self-cleavage worked out at 0.539. In the case of C27U A40U, the self-cleavage was found to be 0.207.

On to C27U A40G, for which the self-cleavage turned out to be 0.192. With C27A A59U, the self-cleavage came out at 0.245.

As to C27A A59C, the self-cleavage turned out to be 0.247. With C27A U55C, the self-cleavage came to 0.272. With C27A U55G, the self-cleavage was found to be 0.226. As for C27A U55A, the self-cleavage stood at 0.237.

Regarding C27A U36G, the self-cleavage came out at 0.146. As to C27A U36C, the self-cleavage was found to be 0.261. In the case of G28A A51U, the self-cleavage turned out to be 0.183.

Regarding G28A A51C, the self-cleavage was 0.234.

For G28A C45A, the self-cleavage was found to be 0.184. Consider G28A C45G, for which the self-cleavage was 0.196. As for C27G U49C, the figure is 0.22; as for C27G U49A, 0.209; as for C27G U49G, 0.112. Consider C27G G41U, for which the self-cleavage is 0.151. Take C27G G41A: the self-cleavage was found to be 0.154. As to C27U G48C, the self-cleavage amounted to 0.397. For G28A C33G, the self-cleavage was found to be 0.195.

Take G28A C33A: the self-cleavage was determined as 0.18. In the case of G28A C33U, the self-cleavage turned out to be 0.22. As to C27G A60U, the self-cleavage came to 0.181. For the variant C27G A60G, the self-cleavage is 0.204. The result for C27G C33G reads 0.241. With G28A C39A, the self-cleavage came to 0.198.

As to G28A C39U, the self-cleavage worked out at 0.17. As for C27A C34G, the figure is 0.219; as for C27A C34A, 0.164. Take C27A C34U: the self-cleavage was determined as 0.52. In the case of C27U U36G, the self-cleavage amounted to 0.188. In the case of C27U U36A, the self-cleavage is 0.167. Turning to G28A C57G, the self-cleavage turned out to be 0.17. For the variant G28A C57A, the self-cleavage was determined as 0.136. Take G28A C57U: the self-cleavage came to 0.137.

Regarding C27A A51U, the self-cleavage was determined as 0.577. For C27U G68U, the self-cleavage came out at 0.432. As to C27U G68A, the self-cleavage came to 0.614. As for C27G U62C, the figure is 0.257; as for C27G U62G, 0.241. On to C27G U62A, for which the self-cleavage was found to be 0.122.

On to C27A C29G, for which the self-cleavage is 0.195. Consider C27G G58C, for which the self-cleavage amounted to 0.231. As for C27G G58U, the figure is 0.193. Turning to G28A C35U, the self-cleavage came to 0.203. As for G28A C35A, the figure is 0.17.

Turning to C27U U44C, the self-cleavage came out at 0.15. As to C27U U44G, the self-cleavage amounted to 0.198. For the variant C27U U44A, the self-cleavage worked out at 0.292. C27G C39U: the self-cleavage was determined as 0.138. Consider U26G G68C, for which the self-cleavage stood at 0.932. Regarding U26G G68U, the self-cleavage was 0.968. As to U26G G68A, the self-cleavage was determined as 1.01. Take C27A G65A: the self-cleavage was 0.255.

Take C27A G65U: the self-cleavage turned out to be 0.202. Regarding C27A G65C, the self-cleavage is 0.288. As for C27U C57A, the self-cleavage amounted to 0.242. For C27U C57G, the self-cleavage was found to be 0.166. Take C27U G30U: the self-cleavage turned out to be 0.181. C27U G30C: the self-cleavage was 0.164.

Regarding C27U G30A, the self-cleavage stood at 0.224. C27A C39U: the self-cleavage stood at 0.339. The result for C27A C39G reads 0.346.
